Results taken from the Immune Epitope Database (IEDB).

Columns and labels:
HLA-B*15:03 = experiment: IEDB peptide-MHC binding, purified MHC/competitive/radioactivity; filed as Kd, often an IC50 or EC50 that approximates it; ≥ and ≤ were set here for values at or beyond the usual limits of such assays
HLA-A*68:02 [1] = experiment: IEDB peptide-MHC binding, purified MHC/competitive/fluorescence; filed as Kd, often an IC50 or EC50 that approximates it; ≥ and ≤ were set here for values at or beyond the usual limits of such assays
HLA-B*07:02 [2] = experiment: IEDB peptide-MHC binding, purified MHC/competitive/radioactivity; filed as Kd, often an IC50 or EC50 that approximates it; ≥ and ≤ were set here for values at or beyond the usual limits of such assays
HLA-B*35:01 = experiment: as above
HLA-B*51:01 = experiment: as above
HLA-B*53:01 = experiment: as above
HLA-B*54:01 = experiment: as above
HLA-A*02:01 [3] = experiment: as above
HLA-A*02:02 = experiment: as above
HLA-A*02:03 [4] = experiment: as above
HLA-A*02:06 = experiment: as above
HLA-A*68:02 [5] = experiment: as above
HLA-A*30:01 = experiment: as above
HLA-A*32:01 = experiment: as above; details: source organism: Vaccinia virus Copenhagen
HLA-B*08:01 = experiment: as above; details: source organism: Vaccinia virus Copenhagen
HLA-B*15:01 [6] = experiment: as above
HLA-B*58:01 = experiment: as above
HLA-A*11:01 = experiment: IEDB peptide-MHC binding, purified MHC/competitive/fluorescence; ≥ and ≤ were set here for values at or beyond the usual limits of such assays
HLA-A*03:01 = experiment: IEDB peptide-MHC binding, purified MHC/competitive/fluorescence; filed as Kd, often an IC50 or EC50 that approximates it; ≥ and ≤ were set here for values at or beyond the usual limits of such assays
HLA-B*15:01 [7] = experiment: as above; details: source organism: Escherichia coli B171
HLA-B*07:02 [8] = experiment: IEDB peptide-MHC binding, purified MHC/competitive/fluorescence; ≥ and ≤ were set here for values at or beyond the usual limits of such assays
HLA-A*02:03 [9] = experiment: IEDB peptide-MHC binding, purified MHC/direct/fluorescence; filed as Kd, often an IC50 or EC50 that approximates it; ≥ and ≤ were set here for values at or beyond the usual limits of such assays; details: source organism: Mycobacterium tuberculosis str. Haarlem
HLA-A*69:01 = experiment: as above; details: source organism: Mycobacterium tuberculosis
HLA-A*24:03 = experiment: IEDB peptide-MHC binding, purified MHC/competitive/fluorescence; filed as Kd, often an IC50 or EC50 that approximates it; ≥ and ≤ were set here for values at or beyond the usual limits of such assays; details: source organism: Escherichia coli F11
HLA-A*02:01 [10] = experiment: IEDB peptide-MHC binding, purified MHC/competitive/fluorescence; ≥ and ≤ were set here for values at or beyond the usual limits of such assays
HLA-B*15:01 [11] = experiment: as above; details: source organism: Zaire ebolavirus
HLA-A*24:02 = experiment: as above; details: source organism: Sudan ebolavirus
[12] = source organism: Vaccinia virus Copenhagen
[13] = source organism: Triticum aestivum
[14] = source organism: Vaccinia virus WR
[15] = source organism: Dengue virus 2 Jamaica/1409/1983
[16] = source organism: Lassa virus Josiah
[17] = source organism: Zaire ebolavirus
[18] = source organism: SARS coronavirus Tor2
[19] = source organism: Sudan ebolavirus

RSSRGVQFL gave a Kd (HLA-B*15:03; [12]) of 123 nM.
MYIFLPVML showed a Kd (HLA-A*68:02 [1]; source organism: Entamoeba dispar SAW760) of 94.1 nM.
For QPFLQPQL, the Kd (HLA-B*07:02 [2]; [13]) was 349 nM, the Kd (HLA-B*35:01; [13]) was ≥ 87800 nM and the Kd (HLA-B*51:01; [13]) was 1110 nM. The Kd (HLA-B*53:01; [13]) was ≥ 87700 nM and the Kd (HLA-B*54:01; [13]) was 6350 nM.
In the case of KPVIVPDIKL, the Kd (HLA-B*07:02 [2]; [14]) is reported as 236 nM, the Kd (HLA-B*35:01; [14]) is reported as 8870 nM and the Kd (HLA-B*51:01; [14]) is reported as ≥ 69600 nM. It also gave a Kd (HLA-B*53:01; [14]) of 5200 nM and a Kd (HLA-B*54:01; [14]) of 3810 nM.
EPISDYSAEV gave a Kd (HLA-B*07:02 [2]; [14]) of 1390 nM, a Kd (HLA-B*35:01; [14]) of 1080 nM and a Kd (HLA-B*51:01; [14]) of 1110 nM. It also gave a Kd (HLA-B*53:01; [14]) of 2390 nM and a Kd (HLA-B*54:01; [14]) of 46.6 nM.
AFEFINSLLK was tested, and the Kd (HLA-A*02:01 [3]; [14]) was 12100 nM, the Kd (HLA-A*02:02; [14]) was 5480 nM and the Kd (HLA-A*02:03 [4]; [14]) was ≥ 20600 nM. For the same sequence, the Kd (HLA-A*02:06; [14]) was ≥ 42800 nM, the Kd (HLA-A*68:02 [5]; [14]) was 11500 nM and the Kd (HLA-B*07:02 [2]; [14]) was ≥ 69600 nM. For the same sequence, the Kd (HLA-B*35:01; [14]) was ≥ 69900 nM, the Kd (HLA-B*51:01; [14]) was ≥ 69600 nM and the Kd (HLA-B*53:01; [14]) was ≥ 69900 nM. The Kd (HLA-B*54:01; [14]) was ≥ 69900 nM.
ELAYYNSCM was tested, and the Kd (HLA-A*02:02; [14]) was 129 nM, the Kd (HLA-A*02:03 [4]; [14]) was 136 nM and the Kd (HLA-A*02:06; [14]) was 3580 nM. The Kd (HLA-A*30:01; [12]) was 1450 nM, the Kd (HLA-A*32:01) was ≥ 20600 nM and the Kd (HLA-B*08:01) was 346 nM. For the same sequence, the Kd (HLA-B*15:01 [6]; [12]) was 594 nM and the Kd (HLA-B*15:03; [12]) was 4140 nM.
KARSTPFNM was tested, and the Kd (HLA-A*30:01; [15]) was 169 nM and the Kd (HLA-B*58:01; [15]) was 194 nM.
IMTSYQYLI was tested, and the Kd (HLA-A*02:01 [3]; [16]) was 33.3 nM, the Kd (HLA-A*02:02; [16]) was 210 nM and the Kd (HLA-A*02:03 [4]; [16]) was 78.1 nM. For the same sequence, the Kd (HLA-A*02:06; [16]) was 597 nM and the Kd (HLA-A*68:02 [5]; [16]) was 698 nM.
Work on AVVVNPSVK yielded an IC50 (HLA-A*11:01; source organism: West Nile virus) of 2250 nM.
Sequence TLYDRYLIH has a Kd (HLA-A*03:01; source organism: Coxiella burnetii RSA 331) of 6.9 nM.
In the case of RVDEIILFK, the Kd (HLA-A*03:01; source organism: Bacillus cereus G9241) is reported as 156 nM.
For QLYSTLLSF, the Kd (HLA-B*15:01 [6]; [14]) was 3 nM and the Kd (HLA-B*15:03; [14]) was 0.565 nM.
For RQVVDFFKF, the Kd (HLA-B*15:03; [14]) was 0.344 nM.
With VMAGVFARY the Kd (HLA-A*03:01; source organism: Escherichia coli B171) was 21.4 nM and the Kd (HLA-B*15:01 [7]) was 61.7 nM.
LPNPAFIHI was tested, and the IC50 (HLA-B*07:02 [8]; source organism: Variola virus) was 11000 nM.
Sequence ALLENIHRV has a Kd (HLA-A*02:03 [9]) of 2 nM and a Kd (HLA-A*69:01) of 47.3 nM.
For FWPQHFGLI, the Kd (HLA-A*24:03) was 0.4 nM.
For DVALEDNLI, the Kd (HLA-A*68:02 [1]; source organism: Vibrio cholerae V52) was 91.9 nM.
KHAQRIETW gave a Kd (HLA-B*58:01; source organism: Dengue virus 2 Peru/IQT2913/1996) of 482 nM.
For IGLAWIPYF, the IC50 (HLA-A*02:01 [10]; [17]) was 5680 nM and the IC50 (HLA-B*15:01 [11]) was ≥ 153000 nM.
HPNPKGFCDL showed a Kd (HLA-B*07:02 [2]; [18]) of 968 nM, a Kd (HLA-B*35:01; [18]) of 312 nM and a Kd (HLA-B*51:01; [18]) of 923 nM. The Kd (HLA-B*53:01; [18]) was 698 nM and the Kd (HLA-B*54:01; [18]) was 9770 nM.
RAAVEDEEF was tested, and the Kd (HLA-B*58:01; source organism: Dengue virus 3 Singapore/8120/1995) was 865 nM.
HTPQFLFQL was tested, and the IC50 (HLA-A*02:01 [10]; [19]) was 2730 nM, the IC50 (HLA-A*11:01; [19]) was ≥ 166000 nM and the IC50 (HLA-A*24:02) was 1110 nM. For the same sequence, the IC50 (HLA-B*07:02 [8]; [19]) was ≥ 78800 nM.
Work on RPRVTKQYIV yielded a Kd (HLA-B*07:02 [2]; [14]) of 4.55 nM, a Kd (HLA-B*35:01; [14]) of 11500 nM and a Kd (HLA-B*51:01; [14]) of 14900 nM. For the same sequence, the Kd (HLA-B*53:01; [14]) was 4450 nM and the Kd (HLA-B*54:01; [14]) was 106 nM.
Sequence ILHVDILSF has a Kd (HLA-B*15:03; [14]) of 23.8 nM.
TESDMDYHK was tested, and the IC50 (HLA-A*11:01; [17]) was ≥ 174000 nM.
In the case of IQVHAEQGL, the IC50 (HLA-A*02:01 [10]; [17]) is reported as ≥ 105000 nM and the IC50 (HLA-B*15:01 [11]) is reported as 33000 nM.
